{
  "source": "the Human Domainome abundance scans (Beltran et al. 2025)",
  "parents": {"B1": {"name": "Kinesin-like protein KIF16B, residues 1213 to 1273; numbered along this chain, Q96L93 (parent)", "chain": "ETWTVFRRYSRFREMHKTLKLKYAELAALEFPPKKLFGNKDERVIAERRSHLEKYLRDFFS"}},
  "note": "± gives the uncertainty stated by the source.",
  "data": [
    {"variants_of": "B1", "assay": "abundance fitness (aPCA) (normalised: wild type 0, dead -1); higher = more abundant; growth selection in yeast, the domain comes from the species named", "conditions": "Homo sapiens", "values": [
      {"variant": "ETWTVFRRYSRFREMHKTLKLKYAELAALEFPPKKLFGNKDERWIAERRSHLEKYLRDFFS", "note": "[V44W]", "abundance fitness": "0.112 ± 0.1"},
      {"variant": "ETWTVFRRYSRFREMHKTLKLKYAELAALEFPPKKLFGNKDERKIAERRSHLEKYLRDFFS", "note": "[V44K]", "abundance fitness": "0.18 ± 0.2"},
      {"variant": "ETWTVFRRYSRFREMHKTLKLKYAELAALEFPPKKLFGNKDERQIAERRSHLEKYLRDFFS", "note": "[V44Q]", "abundance fitness": "0.047 ± 0.1"},
      {"variant": "ETWTVFRRYSRFREMHKTLKLKYAELAALEFPPKKLFGNKDSRVIAERRSHLEKYLRDFFS", "note": "[E42S]", "abundance fitness": "0.186 ± 0.078"},
      {"variant": "ETWTVFRRYSRFREMHKTLKLKYAELAALEFPPKKLFGNKDTRVIAERRSHLEKYLRDFFS", "note": "[E42T]", "abundance fitness": "0.078 ± 0.11"},
      {"variant": "ETWTVFRRYSRFREMHKTLKLKYAELAALEFPPKKLFGNKDVRVIAERRSHLEKYLRDFFS", "note": "[E42V]", "abundance fitness": "-0.012 ± 0.069"},
      {"variant": "ETWTVFRRYSRFREMHKTLKLKYAELAALEFPPKKLFGNKDIRVIAERRSHLEKYLRDFFS", "note": "[E42I]", "abundance fitness": "0.053 ± 0.17"},
      {"variant": "ETWTVFRRYSRFREMHKTLKLKYAELAALEFPPKKLFGNKDHRVIAERRSHLEKYLRDFFS", "note": "[E42H]", "abundance fitness": "-0.476 ± 0.24"},
      {"variant": "ETWTVFRRYSRFREMHKTLKLKYAELAALEFPPKKLFGNKDLRVIAERRSHLEKYLRDFFS", "note": "[E42L]", "abundance fitness": "0.164 ± 0.065"},
      {"variant": "ETWTVFRRYSRFREMHKTLKLKYAELAALEFPPKKLFGNKDYRVIAERRSHLEKYLRDFFS", "note": "[E42Y]", "abundance fitness": "-0.242 ± 0.19"},
      {"variant": "ETWTVFRRYSRFREMHKTLKLKYAELAALEFPPKKLFGNKDRRVIAERRSHLEKYLRDFFS", "note": "[E42R]", "abundance fitness": "0.122 ± 0.044"},
      {"variant": "ETWTVFRRYSRFREMHKTLKLKYAELAALEFPPKKLFGNKDWRVIAERRSHLEKYLRDFFS", "note": "[E42W]", "abundance fitness": "0.268 ± 0.094"},
      {"variant": "ETWTVFRRYSRFREMHKTLKLKYAELAALEFPPKKLFGNKDQRVIAERRSHLEKYLRDFFS", "note": "[E42Q]", "abundance fitness": "-0.056 ± 0.067"},
      {"variant": "ETWTVFRRYSRFREMHKTLKLKYAELAALEFPPKKLFGNKDGRVIAERRSHLEKYLRDFFS", "note": "[E42G]", "abundance fitness": "0.266 ± 0.05"},
      {"variant": "ETWTVFRRYSRFREMHKTLKLKYAELAALEFPPKKLFGNKDFRVIAERRSHLEKYLRDFFS", "note": "[E42F]", "abundance fitness": "0.224 ± 0.11"},
      {"variant": "ETWTVFRRYSRFREMHKTLKLKYAELAALEFPPKKLFGNKDARVIAERRSHLEKYLRDFFS", "note": "[E42A]", "abundance fitness": "-0.011 ± 0.073"},
      {"variant": "ETWTVFRRYSRFREMHKTLKLKYAELAALEFPPKKLFGNKDCRVIAERRSHLEKYLRDFFS", "note": "[E42C]", "abundance fitness": "0.044 ± 0.097"},
      {"variant": "ETWTVFRRYSRFREMHKTLKLKYAELAALEFPPKKLFGNKDNRVIAERRSHLEKYLRDFFS", "note": "[E42N]", "abundance fitness": "0.306 ± 0.14"},
      {"variant": "ETWTVFRRYSRFREMHKTLKLKYAELAALEFPPKKLFGNKDDRVIAERRSHLEKYLRDFFS", "note": "[E42D]", "abundance fitness": "-0.031 ± 0.1"},
      {"variant": "ETWTVFRRYSRFREMHKTLKLKYAELAALEFPPKKLFGNKDKRVIAERRSHLEKYLRDFFS", "note": "[E42K]", "abundance fitness": "0.227 ± 0.1"},
      {"variant": "ETWTVFRRYSRFREMHKTLKLKYAELAALEFPPKKLFGNKDERVICERRSHLEKYLRDFFS", "note": "[A46C]", "abundance fitness": "0.093 ± 0.22"},
      {"variant": "ETWTVFRRYSRFREMHKTLKLKYAELAALEFPPKKLFGNKDERVIFERRSHLEKYLRDFFS", "note": "[A46F]", "abundance fitness": "-0.27 ± 0.18"},
      {"variant": "ETWTVFRRYSRFREMHKTLKLKYAELAALEFPPKKLFGNKDERVIEERRSHLEKYLRDFFS", "note": "[A46E]", "abundance fitness": "0.037 ± 0.078"},
      {"variant": "ETWTVFRRYSRFREMHKTLKLKYAELAALEFPPKKLFGNKDERVIGERRSHLEKYLRDFFS", "note": "[A46G]", "abundance fitness": "0.211 ± 0.044"},
      {"variant": "ETWTVFRRYSRFREMHKTLKLKYAELAALEFPPKKLFGNKDERVIKERRSHLEKYLRDFFS", "note": "[A46K]", "abundance fitness": "0.186 ± 0.073"},
      {"variant": "ETWTVFRRYSRFREMHKTLKLKYAELAALEFPPKKLFGNKDERVIDERRSHLEKYLRDFFS", "note": "[A46D]", "abundance fitness": "-0.01 ± 0.092"},
      {"variant": "ETWTVFRRYSRFREMHKTLKLKYAELAALEFPPKKLFGNKDEKVIAERRSHLEKYLRDFFS", "note": "[R43K]", "abundance fitness": "0.017 ± 0.077"},
      {"variant": "ETWTVFRRYSRFREMHKTLKLKYAELAALEFPPKKLFGNKDEMVIAERRSHLEKYLRDFFS", "note": "[R43M]", "abundance fitness": "-0.32 ± 0.087"},
      {"variant": "ETWTVFRRYSRFREMHKTLKLKYAELAALEFPPKKLFGNKDEPVIAERRSHLEKYLRDFFS", "note": "[R43P]", "abundance fitness": "-0.004 ± 0.11"},
      {"variant": "ETWTVFRRYSRFREMHKTLKLKYAELAALEFPPKKLFGNKDEQVIAERRSHLEKYLRDFFS", "note": "[R43Q]", "abundance fitness": "0.003 ± 0.077"},
      {"variant": "ETWTVFRRYSRFREMHKTLKLKYAELAALEFPPKKLFGNKDEYVIAERRSHLEKYLRDFFS", "note": "[R43Y]", "abundance fitness": "-0.489 ± 0.12"},
      {"variant": "ETWTVFRRYSRFREMHKTLKLKYAELAALEFPPKKLFGNKDEFVIAERRSHLEKYLRDFFS", "note": "[R43F]", "abundance fitness": "-0.249 ± 0.45"},
      {"variant": "ETWTVFRRYSRFREMHKTLKLKYAELAALEFPPKKLFGNKDEAVIAERRSHLEKYLRDFFS", "note": "[R43A]", "abundance fitness": "0.033 ± 0.052"},
      {"variant": "ETWTVFRRYSRFREMHKTLKLKYAELAALEFPPKKLFGNKDECVIAERRSHLEKYLRDFFS", "note": "[R43C]", "abundance fitness": "-0.097 ± 0.33"},
      {"variant": "ETWTVFRRYSRFREMHKTLKLKYAELAALEFPPKKLFGNKDENVIAERRSHLEKYLRDFFS", "note": "[R43N]", "abundance fitness": "0.137 ± 0.1"},
      {"variant": "ETWTVFRRYSRFREMHKTLKLKYAELAALEFPPKKLFGNKDEDVIAERRSHLEKYLRDFFS", "note": "[R43D]", "abundance fitness": "-0.31 ± 0.12"},
      {"variant": "ETWTVFRRYSRFREMHKTLKLKYAELAALEFPPKKLFGNKDEIVIAERRSHLEKYLRDFFS", "note": "[R43I]", "abundance fitness": "-0.227 ± 0.23"},
      {"variant": "ETWTVFRRYSRFREMHKTLKLKYAELAALEFPPKKLFGNKDEVVIAERRSHLEKYLRDFFS", "note": "[R43V]", "abundance fitness": "-0.099 ± 0.049"},
      {"variant": "ETWTVFRRYSRFREMHKTLKLKYAELAALEFPPKKLFGNKDEWVIAERRSHLEKYLRDFFS", "note": "[R43W]", "abundance fitness": "-0.155 ± 0.076"},
      {"variant": "ETWTVFRRYSRFREMHKTLKLKYAELAALEFPPKKLFGNKDEEVIAERRSHLEKYLRDFFS", "note": "[R43E]", "abundance fitness": "-0.22 ± 0.1"},
      {"variant": "ETWTVFRRYSRFREMHKTLKLKYAELAALEFPPKKLFGNKDEGVIAERRSHLEKYLRDFFS", "note": "[R43G]", "abundance fitness": "0.209 ± 0.047"},
      {"variant": "ETWTVFRRYSRFREMHKTLKLKYAELAALEFPPKKLFGNKDEHVIAERRSHLEKYLRDFFS", "note": "[R43H]", "abundance fitness": "0.129 ± 0.085"},
      {"variant": "ETWTVFRRYSRFREMHKTLKLKYAELAALEFPPKKLFGNKDELVIAERRSHLEKYLRDFFS", "note": "[R43L]", "abundance fitness": "-0.282 ± 0.065"},
      {"variant": "ETWTVFRRYSRFREMHKTLKLKYAELAALEFPPKKLFGNKDETVIAERRSHLEKYLRDFFS", "note": "[R43T]", "abundance fitness": "0.018 ± 0.063"}
    ]}
  ]
}
